The values below are quoted from earlier work in article PMC11816674.

Broadly, the Kd is the constant that tells how readily two partners part at equilibrium.

The target in one series is IP3R N-terminal region (UniProt Q14643).
The target in series [1] is Cav1.4 1579-1605 (Homo sapiens) (UniProt O60840).
Chain of UniProt O60840 (O60840 1579-1605): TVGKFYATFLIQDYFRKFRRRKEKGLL

Chain of UniProt Q14643 (Q14643 1-604): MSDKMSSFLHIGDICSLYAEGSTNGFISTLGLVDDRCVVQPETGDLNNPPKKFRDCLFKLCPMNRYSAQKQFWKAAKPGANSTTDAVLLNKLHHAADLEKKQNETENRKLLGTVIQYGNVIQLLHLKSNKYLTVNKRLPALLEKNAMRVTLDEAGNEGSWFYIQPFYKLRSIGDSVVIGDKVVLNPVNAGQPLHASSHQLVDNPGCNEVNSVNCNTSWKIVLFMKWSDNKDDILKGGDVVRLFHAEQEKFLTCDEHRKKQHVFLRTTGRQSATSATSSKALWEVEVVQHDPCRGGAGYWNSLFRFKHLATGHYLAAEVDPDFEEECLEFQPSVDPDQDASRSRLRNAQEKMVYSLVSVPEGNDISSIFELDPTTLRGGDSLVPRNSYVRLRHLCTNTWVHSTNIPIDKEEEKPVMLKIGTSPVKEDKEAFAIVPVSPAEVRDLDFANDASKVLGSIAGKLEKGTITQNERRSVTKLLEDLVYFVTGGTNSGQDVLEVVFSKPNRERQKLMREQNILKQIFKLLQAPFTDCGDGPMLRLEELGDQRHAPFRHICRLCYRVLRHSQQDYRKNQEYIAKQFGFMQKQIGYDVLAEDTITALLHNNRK

Turning to CaBP1 (from UniProt Q9NZU7), the Kd with IP3R N-terminal region was 3000 nM.

As to CaBP4 (from UniProt P57796), in series [1], the Kd was 800 nM.
